Reference: patent US20080020978A1 (Amgen, published 2008)
Square brackets hold non-standard residues; d marks the D form. Ends that are not written are not given here. * marks the point of attachment. Oic = O=C(O)[C@@H]1C[C@@H]2CCCC[C@@H]2N1; hArg = N=C(N)NCCCC[C@H](N)C(=O)O; Tic = O=C(O)[C@@H]1Cc2ccccc2CN1; Cha = N[C@@H](CC1CCCCC1)C(=O)O; Cit = NC(=O)NCCC[C@H](N)C(=O)O; Phg = N[C@H](C(=O)O)c1ccccc1; Acm = CC(=O)NC*

B1: SEQ ID NO 659 (peptide)
peptide: Ac-WVTH[Cit]LAGLLS[Cit]SGGVV[hArg]KNFVPTDVG[Oic]FA-NH2
SMILES: CC(=O)N[C@@H](Cc1c[nH]c2ccccc12)C(=O)N[C@H](C(=O)N[C@H](C(=O)N[C@@H](Cc1c[nH]cn1)C(=O)N[C@@H](CCCNC(N)=O)C(=O)N[C@@H](CC(C)C)C(=O)N[C@@H](C)C(=O)NCC(=O)N[C@@H](CC(C)C)C(=O)N[C@@H](CC(C)C)C(=O)N[C@@H](CO)C(=O)N[C@@H](CCCNC(N)=O)C(=O)N[C@@H](CO)C(=O)NCC(=O)NCC(=O)N[C@H](C(=O)N[C@H](C(=O)N[C@@H](CCCCNC(=N)N)C(=O)N[C@@H](CCCCN)C(=O)N[C@@H](CC(N)=O)C(=O)N[C@@H](Cc1ccccc1)C(=O)N[C@H](C(=O)N1CCC[C@H]1C(=O)N[C@H](C(=O)N[C@@H](CC(=O)O)C(=O)N[C@H](C(=O)NCC(=O)N1[C@H](C(=O)N[C@@H](Cc2ccccc2)C(=O)N[C@@H](C)C(N)=O)C[C@@H]2CCCC[C@@H]21)C(C)C)[C@@H](C)O)C(C)C)C(C)C)C(C)C)[C@@H](C)O)C(C)C
B2: SEQ ID NO 655 (peptide)
peptide: Ac-WVTH[Cit]LAGLLS[Cit]SGGVV[hArg]KNFVPTDVGPF-NH2
SMILES: CC(=O)N[C@@H](Cc1c[nH]c2ccccc12)C(=O)N[C@H](C(=O)N[C@H](C(=O)N[C@@H](Cc1c[nH]cn1)C(=O)N[C@@H](CCCNC(N)=O)C(=O)N[C@@H](CC(C)C)C(=O)N[C@@H](C)C(=O)NCC(=O)N[C@@H](CC(C)C)C(=O)N[C@@H](CC(C)C)C(=O)N[C@@H](CO)C(=O)N[C@@H](CCCNC(N)=O)C(=O)N[C@@H](CO)C(=O)NCC(=O)NCC(=O)N[C@H](C(=O)N[C@H](C(=O)N[C@@H](CCCCNC(=N)N)C(=O)N[C@@H](CCCCN)C(=O)N[C@@H](CC(N)=O)C(=O)N[C@@H](Cc1ccccc1)C(=O)N[C@H](C(=O)N1CCC[C@H]1C(=O)N[C@H](C(=O)N[C@@H](CC(=O)O)C(=O)N[C@H](C(=O)NCC(=O)N1CCC[C@H]1C(=O)N[C@@H](Cc1ccccc1)C(N)=O)C(C)C)[C@@H](C)O)C(C)C)C(C)C)C(C)C)[C@@H](C)O)C(C)C
B3: SEQ ID NO 657 (peptide)
peptide: Ac-[Cit]LAGLLS[Cit]SGGVV[hArg]KNFVPTDVGPFAF-NH2
SMILES: CC(=O)N[C@@H](CCCNC(N)=O)C(=O)N[C@@H](CC(C)C)C(=O)N[C@@H](C)C(=O)NCC(=O)N[C@@H](CC(C)C)C(=O)N[C@@H](CC(C)C)C(=O)N[C@@H](CO)C(=O)N[C@@H](CCCNC(N)=O)C(=O)N[C@@H](CO)C(=O)NCC(=O)NCC(=O)N[C@H](C(=O)N[C@H](C(=O)N[C@@H](CCCCNC(=N)N)C(=O)N[C@@H](CCCCN)C(=O)N[C@@H](CC(N)=O)C(=O)N[C@@H](Cc1ccccc1)C(=O)N[C@H](C(=O)N1CCC[C@H]1C(=O)N[C@H](C(=O)N[C@@H](CC(=O)O)C(=O)N[C@H](C(=O)NCC(=O)N1CCC[C@H]1C(=O)N[C@@H](Cc1ccccc1)C(=O)N[C@@H](C)C(=O)N[C@@H](Cc1ccccc1)C(N)=O)C(C)C)[C@@H](C)O)C(C)C)C(C)C)C(C)C
B4: SEQ ID NO 128 (peptide)
peptide: Ac-KWVTH[Cit]LAGLLS[Cit]SGGVVRKNFVPTDVGPKAF-NH2
SMILES: CC(=O)N[C@@H](CCCCN)C(=O)N[C@@H](Cc1c[nH]c2ccccc12)C(=O)N[C@H](C(=O)N[C@H](C(=O)N[C@@H](Cc1c[nH]cn1)C(=O)N[C@@H](CCCNC(N)=O)C(=O)N[C@@H](CC(C)C)C(=O)N[C@@H](C)C(=O)NCC(=O)N[C@@H](CC(C)C)C(=O)N[C@@H](CC(C)C)C(=O)N[C@@H](CO)C(=O)N[C@@H](CCCNC(N)=O)C(=O)N[C@@H](CO)C(=O)NCC(=O)NCC(=O)N[C@H](C(=O)N[C@H](C(=O)N[C@@H](CCCNC(=N)N)C(=O)N[C@@H](CCCCN)C(=O)N[C@@H](CC(N)=O)C(=O)N[C@@H](Cc1ccccc1)C(=O)N[C@H](C(=O)N1CCC[C@H]1C(=O)N[C@H](C(=O)N[C@@H](CC(=O)O)C(=O)N[C@H](C(=O)NCC(=O)N1CCC[C@H]1C(=O)N[C@@H](CCCCN)C(=O)N[C@@H](C)C(=O)N[C@@H](Cc1ccccc1)C(N)=O)C(C)C)[C@@H](C)O)C(C)C)C(C)C)C(C)C)[C@@H](C)O)C(C)C
B5: SEQ ID NO 703 (peptide)
peptide: [Phg]VTHRLAGLLSRSGGVVKNNFVPTDVGPFAF-NH2
modifications: N-terminus assumed
SMILES: CC(C)C[C@H](NC(=O)CNC(=O)[C@H](C)NC(=O)[C@H](CC(C)C)NC(=O)[C@H](CCCNC(=N)N)NC(=O)[C@H](Cc1c[nH]cn1)NC(=O)[C@@H](NC(=O)[C@@H](NC(=O)[C@@H](N)c1ccccc1)C(C)C)[C@@H](C)O)C(=O)N[C@@H](CC(C)C)C(=O)N[C@@H](CO)C(=O)N[C@@H](CCCNC(=N)N)C(=O)N[C@@H](CO)C(=O)NCC(=O)NCC(=O)N[C@H](C(=O)N[C@H](C(=O)N[C@@H](CCCCN)C(=O)N[C@@H](CC(N)=O)C(=O)N[C@@H](CC(N)=O)C(=O)N[C@@H](Cc1ccccc1)C(=O)N[C@H](C(=O)N1CCC[C@H]1C(=O)N[C@H](C(=O)N[C@@H](CC(=O)O)C(=O)N[C@H](C(=O)NCC(=O)N1CCC[C@H]1C(=O)N[C@@H](Cc1ccccc1)C(=O)N[C@@H](C)C(=O)N[C@@H](Cc1ccccc1)C(N)=O)C(C)C)[C@@H](C)O)C(C)C)C(C)C)C(C)C
B6: SEQ ID NO 708 (peptide)
peptide: AC(Acm)DTATSVTHRLAGLLSRSGGVVKNNFVPTNVGSKAF-NH2
modifications: N-terminus assumed
SMILES: CC(=O)NCSC[C@H](NC(=O)[C@H](C)N)C(=O)N[C@@H](CC(=O)O)C(=O)N[C@H](C(=O)N[C@@H](C)C(=O)N[C@H](C(=O)N[C@@H](CO)C(=O)N[C@H](C(=O)N[C@H](C(=O)N[C@@H](Cc1c[nH]cn1)C(=O)N[C@@H](CCCNC(=N)N)C(=O)N[C@@H](CC(C)C)C(=O)N[C@@H](C)C(=O)NCC(=O)N[C@@H](CC(C)C)C(=O)N[C@@H](CC(C)C)C(=O)N[C@@H](CO)C(=O)N[C@@H](CCCNC(=N)N)C(=O)N[C@@H](CO)C(=O)NCC(=O)NCC(=O)N[C@H](C(=O)N[C@H](C(=O)N[C@@H](CCCCN)C(=O)N[C@@H](CC(N)=O)C(=O)N[C@@H](CC(N)=O)C(=O)N[C@@H](Cc1ccccc1)C(=O)N[C@H](C(=O)N1CCC[C@H]1C(=O)N[C@H](C(=O)N[C@@H](CC(N)=O)C(=O)N[C@H](C(=O)NCC(=O)N[C@@H](CO)C(=O)N[C@@H](CCCCN)C(=O)N[C@@H](C)C(=O)N[C@@H](Cc1ccccc1)C(N)=O)C(C)C)[C@@H](C)O)C(C)C)C(C)C)C(C)C)[C@@H](C)O)C(C)C)[C@@H](C)O)[C@@H](C)O

biological target: T1, CGRP1 receptor (CRLR/RAMP1 complex) of human neuroblastoma SK-N-MC cells (human, UniProt Q16602 23-461; O60894 27-148); experiment: cell-based or functional assay
T1 sequence (Q16602 23-461, chain 1 of 2): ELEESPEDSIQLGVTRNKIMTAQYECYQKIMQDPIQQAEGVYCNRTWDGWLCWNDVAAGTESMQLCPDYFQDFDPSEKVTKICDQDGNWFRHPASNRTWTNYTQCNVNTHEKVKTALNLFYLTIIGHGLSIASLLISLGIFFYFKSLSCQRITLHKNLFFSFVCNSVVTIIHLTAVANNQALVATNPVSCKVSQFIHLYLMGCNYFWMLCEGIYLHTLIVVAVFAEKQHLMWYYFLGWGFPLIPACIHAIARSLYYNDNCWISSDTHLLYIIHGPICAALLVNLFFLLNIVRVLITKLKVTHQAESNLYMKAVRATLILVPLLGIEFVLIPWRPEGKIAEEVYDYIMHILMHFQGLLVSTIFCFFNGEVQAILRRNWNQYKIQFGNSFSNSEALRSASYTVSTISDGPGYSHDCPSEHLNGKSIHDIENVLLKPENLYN
T1 sequence (O60894 27-148, chain 2 of 2): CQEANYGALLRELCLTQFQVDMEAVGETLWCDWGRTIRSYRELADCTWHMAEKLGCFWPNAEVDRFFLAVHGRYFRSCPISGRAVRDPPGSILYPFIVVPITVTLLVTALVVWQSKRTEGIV

Binder | IC50 [nM]
B1 | > 1000
Ac-WVTH[Cit]LAGLLS[Cit]SGGVVRKNFVPTDVG[Tic]FAF-NH2 [SEQ ID NO 141] | 4.32
WVTHXLAGLLSXSGGVVRKNFVPTDVGPXAF (Ac-WVTH[Cit]LAGLLS[Cit]SGGVVRKNFVPTDVGP[Tic]AF-NH2) [SEQ ID NO 146] | 10.1
Ac-WVTH[Cit]LAGLLS[Cit]SGGVV[hArg]KNFVPTDVGPFA-NH2 (not fully specified) [SEQ ID NO 654] | > 1000
B2 | > 1000
B3 | 13
B4 | 13
WVTHXLAGLLSXSGGVVXKNXVPTDVGXFAF (Ac-WVTH[Cit]LAGLLS[Cit]SGGVV[hArg]KN[2-Nal]VPTDVG[Oic]FAF-NH2) [SEQ ID NO 137] | 2.66
WVTHXLAGLLSXSGGVVXKNFVPTDVGPXAF (Ac-WVTH[Cit]LAGLLS[Cit]SGGVV[hArg]KNFVPTDVGP[1-Nal]AF-NH2) [SEQ ID NO 144] | 2.24
WVTHXLAGLLSXSGGVVXKNFVPTDVGPFAF (Ac-WVTH[Cit]LAGLLS[Cit]SGGVV[hArg]KNFVPTDVGPFAF-NH2) [SEQ ID NO 653] | 3.22
WVTHXLAGLLSXSGGVVXKNXVPTDVGXFAX (Ac-WVTH[Cit]LAGLLS[Cit]SGGVV[hArg]KN[2-Nal]VPTDVG[Oic]FA[2-Nal]-NH2) [SEQ ID NO 138] | 3.45
WVTHXLAGLLSXSGGVVXKNXVXTDVGXFAX (Ac-WVTH[Cit]LAGLLS[Cit]SGGVV[hArg]KN[2-Nal]V[Oic]TDVG[Oic]FA[2-Nal]-NH2) [SEQ ID NO 139] | 3.57
Ac-WVTH[Cit]LAGLLS[Cit]SGGVVRKNFVPTDVG[Tic]FAF-NH2 [SEQ ID NO 140] | 3.02

biological target: T1, CGRP1 receptor (CRLR/RAMP1 complex) of …; experiment: 125I-hαCGRP competition, SK-N-MC membranes
Procedure: CGRP₁ binding experiments. […] The plates were incubated at room temperature for 2 hour with shaking at 60 rpm, then the contents of each well were filtered over 0.5% polyethyleneimine (PEI)-treated (at least one hour) GF/C 96-well filter plates. The GF/C filter plates were washed 6 times with ice-cold 50 mM Tris, pH 7.5 and dried in an oven at 55 C for 1 hour. The bottoms of the GF/C plates were then sealed, and 40 μl Microscint™ 20 was added to each well, then the tops of the GF/C plates were sealed with TopSeal™-A, a press-on adhesive sealing film, and the GF/C plates were counted with TopCount NXT (Packard). The data were analyzed by using ActivityBase (IDBS) or Prizm (GraphPad) software.

Binder | Ki [nM]
CGGGGGGGFVPTDVGPFAF-NH2 [SEQ ID NO 721] | 7.34
B5 | 0.19
[Cha]VTHRLAGLLSRSGGVVKNNFVPTDVGPFAF-NH2 [SEQ ID NO 704] | 0.2
WVTHXLAGLLSXSGGVVRKNFVPTDVGPFAF (Ac-WVTH[Cit]LAGLLS[Cit]SGGVVRK(20 KPEGald)NFVPTDVGPFAF-NH2) [SEQ ID NO 158] | 2.61
WVTHXLAGLLSXSGGVVXKNFVPTDVGPFAF (Ac-WVTH[Cit]LAGLLS[Cit]SGGVV[hArg]K(20 K PEGald)NFVPTDVGPFAF-NH2) [SEQ ID NO 153] | 1.78
WVTHXLAGLLSXSGGVVXKNFVPTDVGPFAF (Ac-WVTH[Cit]LAGLLS[Cit]SGGVV[hArg]K(20 KPEGald)NFVPTDVGPFAF-NH2) [SEQ ID NO 171] | 1.27
ASDTATCVTHRLAGLLSRSGGVVKNNFVPTNVGSKAF (ASDTATC(Acm)VTHRLAGLLSRSGGVVKNNFVPTNVGSKAF-NH2) [SEQ ID NO 707] | 20.8
B6 | 24
ASDTATSVTHRLAGLLSRSGGVVKNNFVPTNVGSKAF-NH2 [SEQ ID NO 709] | 12.1
